These results are taken from IntAct's records for PubMed 22624718.

B1: Leukocyte antigen CD37 (Homo sapiens), P11049 (parent)
chain: MSAQESCLSLIKYFLFVFNLFFFVLGSLIFCFGIWILIDKTSFVSFVGLAFVPLQIWSKVLAISGIFTMGIALLGCVGALKELRCLLGLYFGMLLLLFATQITLGILISTQRAQLERSLRDVVEKTIQKYGTNPEETAAEESWDYVQFQLRCCGWHYPQDWFQVLILRGNGSEAHRVPCSCYNLSATNDSTILDKVILPQLSRLGHLARSRHSADICAVPAESHIYREGCAQGLQKWLHNNLISIVGICLGVGLLELGFMTLSIFLCRNLDHVYNRLARYR

The variants in one assay derive from B1. Conditions: with lyn_human LYN.
For MSAQESCLSLIKFFLFVFNLFFFVLGSLIFCFGIWILIDKTSFVSFVGLAFVPLQIWSKVLAISGIFTMGIALLGCVGALKELRCLLGLYFGMLLLLFATQITLGILISTQRAQLERSLRDVVEKTIQKYGTNPEETAAEESWDYVQFQLRCCGWHYPQDWFQVLILRGNGSEAHRVPCSCYNLSATNDSTILDKVILPQLSRLGHLARSRHSADICAVPAESHIYREGCAQGLQKWLHNNLISIVGICLGVGLLELGFMTLSIFLCRNLDHVYNRLARYR [Y13F], the “effect of a mutation on the interaction” value is “disrupting interaction”.

In a further assay the parent is B1. Conditions: with ptn6_human PTPN6, P29350.
ptn6_human PTPN6, P29350, sequence (P29350 whole entry): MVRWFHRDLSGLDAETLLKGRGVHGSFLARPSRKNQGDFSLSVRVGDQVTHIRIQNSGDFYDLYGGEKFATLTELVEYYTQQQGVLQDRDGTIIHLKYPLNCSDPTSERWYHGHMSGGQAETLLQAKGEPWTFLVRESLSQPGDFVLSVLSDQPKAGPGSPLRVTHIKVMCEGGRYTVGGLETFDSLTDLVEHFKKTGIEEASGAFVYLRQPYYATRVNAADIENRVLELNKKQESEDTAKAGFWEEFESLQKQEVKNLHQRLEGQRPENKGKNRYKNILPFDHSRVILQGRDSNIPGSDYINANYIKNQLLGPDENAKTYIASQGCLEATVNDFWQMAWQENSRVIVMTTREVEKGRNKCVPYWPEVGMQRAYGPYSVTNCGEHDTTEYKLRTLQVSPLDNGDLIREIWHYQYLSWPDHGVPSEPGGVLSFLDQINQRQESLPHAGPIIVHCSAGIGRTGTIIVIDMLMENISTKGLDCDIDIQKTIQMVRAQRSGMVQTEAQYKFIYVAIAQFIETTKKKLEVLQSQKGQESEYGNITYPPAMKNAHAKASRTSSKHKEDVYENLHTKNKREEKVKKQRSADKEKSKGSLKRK
On to MSAQESCLSLIKFFLFVFNLFFFVLGSLIFCFGIWILIDKTSFVSFVGLAFVPLQIWSKVLAISGIFTMGIALLGCVGALKELRCLLGLYFGMLLLLFATQITLGILISTQRAQLERSLRDVVEKTIQKYGTNPEETAAEESWDYVQFQLRCCGWHYPQDWFQVLILRGNGSEAHRVPCSCYNLSATNDSTILDKVILPQLSRLGHLARSRHSADICAVPAESHIYREGCAQGLQKWLHNNLISIVGICLGVGLLELGFMTLSIFLCRNLDHVYNRLARYR [Y13F], for which the “effect of a mutation on the interaction” value is on record as “disrupting interaction”.
